Source: paper PMC8511477 (Synthetic Biology, 2021)

Legend:
Conditions in all cases: 2.5 mM ATP, 0.5 mM CoA, 5 mM MgCl2, pH 7.5, 37 °C
ArACS = tested on: T1, ArACS; assay: myokinase/pyruvate kinase/lactate dehydrogenase coupled NADH assay, […] nm; assay type: biochemical
T1 construct: gene acs; C-terminal 6xHis (pET29b+), expressed in E. coli BL21*(DE3) delta-patZ, Ni-NTA purified; species only in supplement

EcACS = biological target: T2, EcACS (Escherichia coli, UniProt P27550)
T2 construct: gene acs

purified protein [1] = substrate: CC(=O)O; assay: purified protein
purified protein [2] = substrate: O=CO; assay: purified protein

## O=CO [formate]
ArACS
  Km: 38.5 ± 19.3 mM

## CC(=O)O [acetate]
EcACS
  km: We assayed these homologs using formate as well as acetate, the likely native substrate

B1: MhACS (Marinithermus hydrothermalis DSM 14884) (protein)
chain: MERIEAVLKENRRFEPPEEFRKRARIQSEAEYEALYRESLEDPEAFWGRVAEELHWFEPWTQVLEWNPPHARWFVNGKTNLSYNALDRHVATWRKNKAAIIWEGEPGEERVLTYHDLWREVQRFANALKQLGVGKGDRVTIYMPMIPETAIAMLACARIGAVHSVVFGGFSANALAERIKDAEAKLLITADGGYRRGRVVPLKAQADEALAETPSVEHVVVVRRTGEAVPMQPGRDHWYHELVESVPDHCPPEVMDAEDPLFILYTSGSTGKPKGVLHTTGGYMVYTYLTTKLVFDLKDEDTYWCTADVGWITGHSYIVYGPLVNGATTLMYEGAPNHPEPDRFWRIVDKYGVTIFYTAPTAIRAFMKWGEAWPRKHRLDSLRLLGTVGEPINPEAWLWYHQVIGQGRCPIVDTWWQTETGGIMITTLPGAHAAKPGFAGKPFFGVAPEIRDAEGNRVETPEEGGYLVLTRPWPSMLRTVWGDPERYRRQYWSQYPDAYFTGDGARRDADGYYLILGRVDDVLNVAGHRLGTMELESALVSHPDVAEAAVVGRPHPEKGEAIVAFVTLKSHARPSEALREALKAHVANTIGPIARPDEIRFAEALPKTRSGKIMRRLLRQIAAGETEIKGDTSTLEDREVVEQLKRGE
Purified protein [1]
  Km: 0.089 ± 0.060 mM
  kcat: 15.1 s⁻¹

B2: EcACS (Escherichia coli K-12) (protein)
chain: MSQIHKHTIPANIADRCLINPQQYEAMYQQSINVPDTFWGEQGKILDWIKPYQKVKNTSFAPGNVSIKWYEDGTLNLAANCLDRHLQENGDRTAIIWEGDDASQSKHISYKELHRDVCRFANTLLELGIKKGDVVAIYMPMVPEAAVAMLACARIGAVHSVIFGGFSPEAVAGRIIDSNSRLVITSDEGVRAGRSIPLKKNVDDALKNPNVTSVEHVVVLKRTGGKIDWQEGRDLWWHDLVEQASDQHQAEEMNAEDPLFILYTSGSTGKPKGVLHTTGGYLVYAALTFKYVFDYHPGDIYWCTADVGWVTGHSYLLYGPLACGATTLMFEGVPNWPTPARMAQVVDKHQVNILYTAPTAIRALMAEGDKAIEGTDRSSLRILGSVGEPINPEAWEWYWKKIGNEKCPVVDTWWQTETGGFMITPLPGATELKAGSATRPFFGVQPALVDNEGNPLEGATEGSLVITDSWPGQARTLFGDHERFEQTYFSTFKNMYFSGDGARRDEDGYYWITGRVDDVLNVSGHRLGTAEIESALVAHPKIAEAAVVGIPHNIKGQAIYAYVTLNHGEEPSPELYAEVRNWVRKEIGPLATPDVLHWTDSLPKTRSGKIMRRILRKIAAGDTSNLGDTSTLADPGVVEKLLEEKQAIAMPS
Purified protein [2]
  Km: 54.4 ± 14.9 mM
